Reference: patent US20220235103A1 (Molecular Partners, published 2022)

Columns and labels:
Assay in all cases: cell-based or functional assay
[1] = biological target: SARS-CoV-2 spike protein G446V (SARS-CoV-2, UniProt P0DTC2 14-1273)
[2] = biological target: SARS-CoV-2 spike protein Y453F (SARS-CoV-2, UniProt P0DTC2 14-1273)
[3] = biological target: SARS-CoV-2 spike protein A222V (SARS-CoV-2, UniProt P0DTC2 14-1273)
[4] = biological target: SARS-CoV-2 spike protein F486V (SARS-CoV-2, UniProt P0DTC2 14-1273)
[5] = biological target: SARS-CoV-2 spike protein variant B.1.351 (SARS-CoV-2, UniProt P0DTC2 14-1273)
[6] = biological target: T1, SARS-CoV-2 spike protein, wild type (Wuhan) (SARS-CoV-2, UniProt P0DTC2 14-1273)
[7] = biological target: SARS-CoV-2 spike protein N501Y (SARS-CoV-2, UniProt P0DTC2 14-1273)
[8] = biological target: SARS-CoV-2 spike protein T478I (SARS-CoV-2, UniProt P0DTC2 14-1273)
[9] = biological target: T2, SARS-CoV-2 spike protein V483A (SARS-CoV-2, UniProt P0DTC2 14-1273)
[10] = biological target: SARS-CoV-2 spike protein P479S (SARS-CoV-2, UniProt P0DTC2 14-1273)
[11] = biological target: SARS-CoV-2 spike protein S477N (SARS-CoV-2, UniProt P0DTC2 14-1273)
[12] = biological target: SARS-CoV-2 spike protein K417E (SARS-CoV-2, UniProt P0DTC2 14-1273)
[13] = biological target: SARS-CoV-2 spike protein F490S (SARS-CoV-2, UniProt P0DTC2 14-1273)
[14] = biological target: SARS-CoV-2 spike protein E484K (SARS-CoV-2, UniProt P0DTC2 14-1273)
[15] = biological target: SARS-CoV-2 spike protein Q493K (SARS-CoV-2, UniProt P0DTC2 14-1273)
[16] = biological target: SARS-CoV-2 spike protein N439K (SARS-CoV-2, UniProt P0DTC2 14-1273)
[17] = biological target: T3, SARS-CoV-2 spike protein G476S (SARS-CoV-2, UniProt P0DTC2 14-1273)
[18] = biological target: T4, SARS-CoV-2 spike protein D614G (SARS-CoV-2, UniProt P0DTC2 14-1273)
[19] = biological target: spike protein of live SARS-CoV-2 (2019-nCoV/IDF0372/2020) (SARS-CoV-2, UniProt P0DTC2 14-1273)
[20] = biological target: T1, SARS-CoV-2 spike protein, wild type …; remark: listed apart in the source
[21] = biological target: T1, SARS-CoV-2 spike protein, wild type …; remark: listed apart in the source
[22] = biological target: T2, SARS-CoV-2 spike protein V483A; remark: listed apart in the source
[23] = biological target: SARS-CoV-2 spike protein D614G x Q675H (SARS-CoV-2, UniProt P0DTC2 14-1273)
[24] = biological target: T3, SARS-CoV-2 spike protein G476S; remark: listed apart in the source
[25] = biological target: T4, SARS-CoV-2 spike protein D614G; remark: listed apart in the source

B1: ALE049 (designed binder)
chain: MRGSHHHHHHGSDLGKKLLEAARAGQDDEVRELLKAGADVNAKDYFSHTPLHLAARNGHLKIVEVLLKAGADVNAKDFAGKTPLHLAANEGHLEIVEVLLKAGADVNAQDIFGKTPADIAADAGHEDIAEVLQKAAGSPTPTPTTPTPTPTTPTPTPTGSDLGKKLLEAARAGQDDEVRELLKAGADVNAKDYFSHTPLHLAARNGHLKIVEVLLKAGADVNAKDFAGKTPLHLAANEGHLEIVEVLLKAGADVNAQDIFGKTPADIAADAGHEDIAEVLQKAAGSPTPTPTTPTPTPTTPTPTPTGSDLGKKLLQAARAGQLDEVRELLKAGADVNAKDREGITPLHLAAQHGHLEIVEVLLKAGADVNAKDVWGRTPLHLAAWQGHLEIVEVLLKAGADVNAKDLAGATPLHVAALYGHLEIVEVLLKAGADVNAQDKSGKTPADLAARAGHQDIAEVLQKAAGSPTPTPTTPTPTPTTPTPTPTGSDLGKKLLQAARAGQLDEVRELLKAGADVNAKDREGKTPLHVAAQEGHLEIVEVLLKAGADVNAKDVWGRTPLHLAAWIGHLEIVEVLLKAGADVNAKDVSGATPLHAAALHGHLEIVEVLLNAGADVNAQDKSGKTPADLAARAGHQDIAEVLQKAAGSPTPTPTTPTPTPTTPTPTPTGSDLGKKLLQAARAGQLDEVRELLKAGADVNAKDQEGITPLHVAAHQGHLEIVEVLLKAGADVNAKDVWGRTPLHLAAWRGHLEIVEVLLKAGADVNAKDHAGATPLHAAALSGHLEIVEVLLKAGADVNAQDKSGKTPADLAARAGHQDIAEVLQKAA
VSV Pseudotype Neutralization Assay IC50 [1]: 1.7 ng/mL
VSV Pseudotype Neutralization Assay IC50 [2]: 3.2 ng/mL
VSV Pseudotype Neutralization Assay IC50 [3]: 2.2 ng/mL
VSV Pseudotype Neutralization Assay IC50 [4]: > 100 ng/mL
VSV Pseudotype Neutralization Assay IC50 [5]: 3 ng/mL
VSV Pseudotype Neutralization Assay IC50 [6]: 1 ng/mL
VSV Pseudotype Neutralization Assay IC50 [7]: 0.5 ng/mL
VSV Pseudotype Neutralization Assay IC50 [8]: 2.7 ng/mL
VSV Pseudotype Neutralization Assay IC50 [9]: 2.3 ng/mL
VSV Pseudotype Neutralization Assay IC50 [10]: 2.1 ng/mL
VSV Pseudotype Neutralization Assay IC50 [11]: 1.9 ng/mL
VSV Pseudotype Neutralization Assay IC50 [12]: 0.5 ng/mL
VSV Pseudotype Neutralization Assay IC50 [13]: 3.8 ng/mL
VSV Pseudotype Neutralization Assay IC50 [14]: 2.7 ng/mL
VSV Pseudotype Neutralization Assay IC50 [15]: 7.9 ng/mL
VSV Pseudotype Neutralization Assay IC50 [16]: 1.3 ng/mL
VSV Pseudotype Neutralization Assay IC50 [17]: 1.5 ng/mL
VSV Pseudotype Neutralization Assay IC50 [18]: 2.4 ng/mL
IC50 LV (live virus cytopathic effect assay) [19]: 0.025 nM
IC50 (read off the curve), SARS-CoV-2 VSV pseudotype virus, no competitor [20]: ~0.1 nM
Potency of inhibition of SARS-CoV-2 spike protein variants (IC50) [21]: 0.0165 nM
Potency of inhibition of SARS-CoV-2 spike protein variants (IC50) [22]: 0.0275 nM
Potency of inhibition of SARS-CoV-2 spike protein variants (IC50) [23]: 0.0121 nM
Potency of inhibition of SARS-CoV-2 spike protein variants (IC50) [24]: 0.0271 nM
Potency of inhibition of SARS-CoV-2 spike protein variants (IC50) [25]: 0.0118 nM
